Experimental data from the supplement of paper PMC9112550, “Optimization of the antimicrobial peptide Bac7 by deep mutational scanning” (BMC Biology, 2022).

The sequences below were run on Escherichia coli TOP10 (assay: shrunken log2 fold change of peptide-encoding DNA abundance (4.5 h post-induction vs induction); higher = less antimicrobial activity (less host growth inhibition)). Details: time post-induction: 4.5 h; library: site-saturation at positions 5, 18, 19, 20.
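Also: peptides expressed intracellularly from a pBAD plasmid library in pooled LB shake-flask culture, induced with 0.3% L-arabinose, DNA abundance read by NGS, three biological replicates, DESeq2 with apeglm shrinkage.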

Sequence	shrunken log2 fold change
RRIRERPPRLPRPRPRPFMDPRP	-0.243
RRIRARPPRLPRPRPRPKEYPRP	-0.15
RRIRFRPPRLPRPRPRPFPSPRP	-0.179
RRIRTRPPRLPRPRPRPDQWPRP	-0.00805
RRIRSRPPRLPRPRPRPQAQPRP	-0.121
RRIRTRPPRLPRPRPRPIHEPRP	-0.259
RRIRTRPPRLPRPRPRPSLPPRP	-0.0317
RRIRYRPPRLPRPRPRPRMCPRP	-0.0134
RRIRCRPPRLPRPRPRPVYKPRP	-0.595
RRIRRRPPRLPRPRPRPAELPRP	-0.0392
RRIRFRPPRLPRPRPRPVGRPRP	0.382
RRIRERPPRLPRPRPRPMRQPRP	0.575
RRIRVRPPRLPRPRPRPIITPRP	-0.844
RRIRGRPPRLPRPRPRPQVKPRP	0.564
RRIRCRPPRLPRPRPRPINMPRP	-1.09
RRIRARPPRLPRPRPRPATRPRP	0.487
RRIRKRPPRLPRPRPRPQRRPRP	0.734
RRIRKRPPRLPRPRPRPKQEPRP	-0.104
RRIRSRPPRLPRPRPRPFNYPRP	0.0477
RRIRCRPPRLPRPRPRPMNHPRP	-0.658
RRIRNRPPRLPRPRPRPWMIPRP	-0.252
RRIRMRPPRLPRPRPRPYYTPRP	0.0968
RRIRDRPPRLPRPRPRPDSAPRP	-0.0433
RRIRFRPPRLPRPRPRPRVSPRP	-0.102
RRIRWRPPRLPRPRPRPWVHPRP	-0.597

Sequence	shrunken log2 fold change
RRIRTRPPRLPRPRPRPLGWPRP	0.811
RRIRSRPPRLPRPRPRPDGFPRP	-0.0636
RRIRSRPPRLPRPRPRPLEAPRP	0.177
RRIRWRPPRLPRPRPRPIRFPRP	-0.0926
RRIRFRPPRLPRPRPRPIWCPRP	-0.0176
RRIRMRPPRLPRPRPRPYIRPRP	-0.13
RRIRDRPPRLPRPRPRPEVYPRP	-0.00999
RRIRKRPPRLPRPRPRPHYNPRP	-0.428
RRIRERPPRLPRPRPRPTMVPRP	0.0432
RRIRPRPPRLPRPRPRPMYAPRP	-0.302
RRIRLRPPRLPRPRPRPGVEPRP	0.0194
RRIRPRPPRLPRPRPRPFSNPRP	-0.218
RRIRCRPPRLPRPRPRPSSLPRP	-0.555
RRIRSRPPRLPRPRPRPCATPRP	0.162
RRIRFRPPRLPRPRPRPKAHPRP	-0.0835
RRIRERPPRLPRPRPRPPDTPRP	-0.426
RRIRWRPPRLPRPRPRPWQMPRP	0.0308
RRIRERPPRLPRPRPRPVFLPRP	-0.474
RRIRYRPPRLPRPRPRPGNRPRP	0.0823
RRIRSRPPRLPRPRPRPDADPRP	-0.0578
RRIRIRPPRLPRPRPRPIKEPRP	-0.021
RRIRKRPPRLPRPRPRPEEVPRP	2.83
RRIRARPPRLPRPRPRPQANPRP	0.304
RRIRIRPPRLPRPRPRPSDEPRP	-0.698
RRIRERPPRLPRPRPRPAGVPRP	0.157

Sequence	shrunken log2 fold change
RRIRYRPPRLPRPRPRPFMPPRP	-0.323
RRIRCRPPRLPRPRPRPTDQPRP	0.38
RRIRNRPPRLPRPRPRPYVPPRP	-0.0142
RRIRIRPPRLPRPRPRPPKVPRP	-0.0254
RRIRIRPPRLPRPRPRPYFFPRP	-0.875
RRIRKRPPRLPRPRPRPYLWPRP	0.125
RRIRCRPPRLPRPRPRPNRIPRP	-0.111
RRIRDRPPRLPRPRPRPKLEPRP	0.434
RRIRYRPPRLPRPRPRPMIQPRP	-0.0921
RRIRQRPPRLPRPRPRPKDLPRP	-0.0616
RRIRTRPPRLPRPRPRPNNEPRP	-0.581
RRIRDRPPRLPRPRPRPWNIPRP	0.0629
RRIRDRPPRLPRPRPRPCIMPRP	0.0282
RRIRRRPPRLPRPRPRPHSCPRP	0.0404
RRIRFRPPRLPRPRPRPQTLPRP	-0.399
RRIRGRPPRLPRPRPRPAVNPRP	0.402
RRIRTRPPRLPRPRPRPRYWPRP	-0.156
RRIRHRPPRLPRPRPRPGAYPRP	-0.266
RRIRKRPPRLPRPRPRPQQEPRP	0.0644
RRIRTRPPRLPRPRPRPGFHPRP	-0.19
RRIRCRPPRLPRPRPRPNDYPRP	-0.42
RRIRSRPPRLPRPRPRPSSLPRP	-0.255
RRIRFRPPRLPRPRPRPQILPRP	-0.713
RRIRCRPPRLPRPRPRPAIAPRP	0.165
RRIRPRPPRLPRPRPRPTWTPRP	0.071

Sequence	shrunken log2 fold change
RRIRLRPPRLPRPRPRPDYEPRP	-0.645
RRIRQRPPRLPRPRPRPTGNPRP	-0.0862
RRIRNRPPRLPRPRPRPNSGPRP	-0.0638
RRIRARPPRLPRPRPRPHDNPRP	0.00651
RRIRFRPPRLPRPRPRPREWPRP	0.112
RRIRERPPRLPRPRPRPMTCPRP	-0.00926
RRIRMRPPRLPRPRPRPESHPRP	0.076
RRIRMRPPRLPRPRPRPIYDPRP	-0.265
RRIRNRPPRLPRPRPRPHGIPRP	-0.154
RRIRCRPPRLPRPRPRPPATPRP	0.887
RRIRKRPPRLPRPRPRPQFVPRP	-0.0281
RRIRFRPPRLPRPRPRPHIQPRP	-0.594
RRIRTRPPRLPRPRPRPQRLPRP	-0.223
RRIRGRPPRLPRPRPRPSYIPRP	-0.458
RRIRLRPPRLPRPRPRPWFDPRP	-0.365
RRIRKRPPRLPRPRPRPSESPRP	0.0559
RRIRTRPPRLPRPRPRPPPMPRP	0.54
RRIRPRPPRLPRPRPRPTDFPRP	-0.193
RRIRRRPPRLPRPRPRPRHCPRP	0.119
RRIRVRPPRLPRPRPRPFNTPRP	2.64
RRIRHRPPRLPRPRPRPRTKPRP	0.204
RRIRIRPPRLPRPRPRPVHSPRP	-0.0158
RRIRKRPPRLPRPRPRPWCPPRP	0.0532
RRIRGRPPRLPRPRPRPQCCPRP	0.168
RRIRHRPPRLPRPRPRPQVVPRP	-0.101

Sequence	shrunken log2 fold change
RRIRVRPPRLPRPRPRPNYYPRP	-0.373
RRIRMRPPRLPRPRPRPAYPPRP	0.0222
RRIRHRPPRLPRPRPRPPSGPRP	0.771
RRIRPRPPRLPRPRPRPEWLPRP	0.404
RRIRWRPPRLPRPRPRPFQPPRP	-0.0697
RRIRWRPPRLPRPRPRPILMPRP	-0.286
RRIRERPPRLPRPRPRPRQNPRP	0.177
RRIRRRPPRLPRPRPRPKPVPRP	0.191
RRIRQRPPRLPRPRPRPSPQPRP	0.548
RRIRCRPPRLPRPRPRPSCEPRP	-0.493
RRIRTRPPRLPRPRPRPRQAPRP	0.171
RRIRQRPPRLPRPRPRPWVEPRP	0.0249
RRIRRRPPRLPRPRPRPNKFPRP	-0.246
RRIRRRPPRLPRPRPRPGGCPRP	0.325
RRIRMRPPRLPRPRPRPDVIPRP	-0.0756
RRIRGRPPRLPRPRPRPLNMPRP	-0.114
RRIRDRPPRLPRPRPRPDKHPRP	-0.0761
RRIRWRPPRLPRPRPRPCMDPRP	-0.18
RRIRPRPPRLPRPRPRPYVIPRP	-0.401
RRIRSRPPRLPRPRPRPQRSPRP	0.316
RRIRCRPPRLPRPRPRPNKFPRP	-0.472
RRIRARPPRLPRPRPRPYVAPRP	-0.35
RRIRLRPPRLPRPRPRPPRSPRP	0.422
RRIRVRPPRLPRPRPRPAEAPRP	0.729
RRIRTRPPRLPRPRPRPACHPRP	0.049
